Patent US20150274820A1 (ESBATECH AN ALCON BIOMEDICAL RESEARCH UNIT, published 2015)

T1: recombinant human PLGF (human, UniProt P49763-2 19-149, limits assumed)
T1 construct: Negative control; also called PIGF
T1 sequence (looked up): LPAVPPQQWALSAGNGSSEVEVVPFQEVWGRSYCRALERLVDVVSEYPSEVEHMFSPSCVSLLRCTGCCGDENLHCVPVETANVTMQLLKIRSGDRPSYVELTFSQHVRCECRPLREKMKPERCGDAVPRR

T2: recombinant human VEGF121 (human, UniProt P15692 27-147)
T2 construct: mature; Isoform VEGF121 of the entry; also called hVEGF121
T2 sequence (looked up): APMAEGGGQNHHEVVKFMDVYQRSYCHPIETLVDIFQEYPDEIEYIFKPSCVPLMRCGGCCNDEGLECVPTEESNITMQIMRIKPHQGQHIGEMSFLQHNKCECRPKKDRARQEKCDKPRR

T3: recombinant human VEGF110 (human, UniProt P15692-4 27-136, limits assumed)
T3 construct: Made in house; also called hVEGF110
T3 sequence (looked up): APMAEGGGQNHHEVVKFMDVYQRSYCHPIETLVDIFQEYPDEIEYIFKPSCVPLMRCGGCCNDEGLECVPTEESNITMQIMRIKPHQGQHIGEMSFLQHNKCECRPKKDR


How the values were obtained:
[1] = biological target: T4, recombinant human VEGF165 (human, UniProt P15692 27-191); assay: Biacore SPR, VEGF immobilized, pH 5
T4 construct: mature; Isoform VEGF165 of the entry; also called hVEGF165; hVEGF
Description: (§1) In this example, the Biacore-binding ability of scFvs was tested and the binding affinity was measured using the exemplary surface plasmon resonance method with BIAcore™-T100. The VEGF proteins, tested for binding by these scFv candidates, in this example and later examples include purified Escherichia coli-expressed recombinant human VEGF₁₆₅ (PeproTech EC Ltd.), recombinant human VEGF₁₂₁ (PeproTech EC Ltd.), recombinant human VEGF₁₁₀ (ESBATech AG), recombinant murine VEGF₁₆₄ (PeproTech EC Ltd.), recombinant rat VEGF₁₆₄ (Biovision), recombinant rabbit VEGF₁₁₀ (ESBATech AG), and recombinant human PLGF (PeproTech EC Ltd.). For the surface plasmon resonance experiment, carboxymethylated dextran biosensor chips (CM4, GE Healthcare) were activated with N-ethyl-N′-(3-dimethylaminopropyl) carbodiimide hydrochloride and N-hydroxysuccinimide according to the supplier's instructions. Each of the 6 different VEGF forms, as exemplified above, was coupled to 1 of the 4 different flow cells on a CM4 sensor chip using a standard amine-coupling procedure. […] The 4th flow cell of each chip was treated similarly except no proteins were immobilized prior to blocking, and the flow cell was used as in-line reference. […] Dissociation of the anti-VEGF scFv from the VEGF on the CM4 chip was allowed to proceed for 10 min at 25° C. Sensorgrams were generated for each anti-VEGF scFv sample after in-line reference cell correction followed by buffer sample subtraction. The apparent dissociation rate constant (kd), the apparent association rate constant (kₐ) and the apparent dissociation equilibrium constant (KD) were calculated using one-to-one Langmuir binding model with BIAcore T100 evaluation Software version 1.1.

[2] = biological target: T4, recombinant human VEGF165; assay: Biacore SPR, VEGF immobilized, pH 7.4
Description: as §1

[3] = biological target: T4, recombinant human VEGF165; assay: VEGFR1/Fc competition ELISA on coated hVEGF165; ratio to Lucentis
Description: After 30-60 min of incubation at room temperature, the mixtures were transferred to the human VEGF₁₆₅ immobilized plate and incubated for 90 min. […] Optical density at 450 nm (OD 450 nm) was measured using a Sunrise microplate reader (Tecan). Data were analyzed as above, and EC₅₀ values were calculated from the dose-response curves of the scFvs.

[4] = biological target: T4, recombinant human VEGF165; assay: cell-based or functional assay
[5] = biological target: recombinant murine VEGF164 (mouse) (UniProt Q00731); assay: Biacore SPR, VEGF immobilized, pH 5
[6] = biological target: recombinant rat VEGF164 (rat) (UniProt P16612); assay: Biacore SPR, VEGF immobilized, pH 5
recombinant human PLGF = biological target: T1, recombinant human PLGF; assay: Biacore SPR, PlGF immobilized, pH 5
Description: as §1

[7] = biological target: T4, recombinant human VEGF165; assay: Biacore SPR, VEGF immobilized, pH 5; remark: listed apart in the source
Description: as §1

[8] = biological target: T2, recombinant human VEGF121; assay: Biacore SPR, VEGF immobilized, pH 5
Description: as §1

[9] = biological target: T3, recombinant human VEGF110; assay: Biacore SPR, VEGF immobilized, pH 5
Description: as §1

[10] = biological target: recombinant murine VEGF164 (mouse) (UniProt Q00731); assay: Biacore SPR; ratio to hVEGF165
[11] = biological target: recombinant rat VEGF164 (rat) (UniProt P16612); assay: Biacore SPR; ratio to hVEGF165
[12] = biological target: T4, recombinant human VEGF165; assay: Biacore SPR, VEGF immobilized, pH 5; remark: listed apart in the source
Description: as §1, with “1.1. […]” for “1.1.”

T4 sequence (P15692 other isoform, or with tags, fused parts or gaps): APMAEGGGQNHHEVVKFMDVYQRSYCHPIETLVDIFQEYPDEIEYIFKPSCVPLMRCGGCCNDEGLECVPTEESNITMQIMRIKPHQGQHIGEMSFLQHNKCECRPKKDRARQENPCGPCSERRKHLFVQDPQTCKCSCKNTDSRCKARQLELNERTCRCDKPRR

koff [1] [s⁻¹]	kon [1] [M⁻¹ s⁻¹]	koff [2] [s⁻¹]	kon [2] [M⁻¹ s⁻¹]	Rel. activity hVEGR1 comp. ELISA (EC50Luc[nM]/EC50test[nM]) [3]	koff [5] [s⁻¹]	kon [5] [M⁻¹ s⁻¹]	koff [6] [s⁻¹]	kon [6] [M⁻¹ s⁻¹]	binding result (recombinant human PLGF)	koff [7] [s⁻¹]	kon [7] [M⁻¹ s⁻¹]	koff [8] [s⁻¹]	kon [8] [M⁻¹ s⁻¹]	koff [9] [s⁻¹]	kon [9] [M⁻¹ s⁻¹]	relative value KdhVEGF165/KdmVEGF164 [10]	relative value kdhVEGF165/kdmVEGF164 [10]	relative value KdhVEGF165/KdmVEGF164 (rat block) [11]	relative value kdhVEGF165/kdmVEGF164 (rat block) [11]	Binder	further results
					0.00188	1.23e+06	0.00152	802000								1	1	0.8	1.2	578min_max T84N_V89L (scFv, the VH entry already carries T84N and V89L; tied by name; also called Protein No. 1008) scFv: EIVMTQSPSTLSASVGDRVIITCQASEIIHSWLAWYQQKPGKAPKLLIYLASTLASGVPSRFSGSGSGAEFTLTISSLQPDDFATYYCQNVYLASTNGANFGQGTKLTVLGGGGGSGGGGSGGGGSGGGGSEVQLVESGGGLVQPGGSLRLSCTASGFSLTDYYYMTWVRQAPGKGLEWVGFIDPDDDPYYATWAKGRFTISRDNSKNTLYLQMNSLRAEDTAVYYCAGGDHNSGWGLDIWGQGTLVTVSS	Kd [5]: 1.53 nM; Kd [6]: 1.89 nM; Kd [12]: 1.59 nM; koff [12]: 0.0018 s⁻¹; kon [12]: 1.13e+06 M⁻¹ s⁻¹
					0.00216	1.47e+06	0.0019	1.04e+06								1.8	1.4	1.5	1.6	578min_max T84N_V89L_DHP (scFv) scFv: EIVMTQSPSTLSASVGDRVIITCQASEIIHSWLAWYQQKPGKAPKLLIYLASTLASGVPSRFSGSGSGAEFTLTISSLQPDDFATYYCQNVYLASTNGANFGQGTKLTVLGGGGGSGGGGSGGGGSGGGGSEVQLVESGGGSVQPGGSLRLSCTASGFSLTDYYYMTWVRQAPGKGLEWVGFIDPDDDPYYATWAKGRFTISRDNSKNTLYLQMNSLRAEDTATYYCAGGDHNSGWGLDIWGQGTTVTVSS	Kd [5]: 1.46 nM; Kd [6]: 1.82 nM
					0.000669	1.1e+06	0.000676	800000								0.9	0.6	0.7	0.6	578minmax FW1.4_DHP (scFv, tied by name only) scFv: EIVMTQSPSTLSASVGDRVIITCQASEIIHSWLAWYQQKPGKAPKLLIYLASTLASGVPSRFSGSGSGAEFTLTISSLQPDDFATYYCQNVYLASTNGANFGQGTKLTVLGGGGGSGGGGSGGGGSGGGGSEVQLVESGGGSVQPGGSLRLSCTASGFSLTDYYYMTWVRQAPGKGLEWVGFIDPDDDPYYATWAKGRFTISRDTSKNTVYLQMNSLRAEDTATYYCAGGDHNSGWGLDIWGQGTTVTVSS	Kd [5]: 0.608 nM; Kd [6]: 0.845 nM; Kd [12]: 0.576 nM; koff [12]: 0.000409 s⁻¹; kon [12]: 711000 M⁻¹ s⁻¹

The remaining lines, values behind:

Binder	koff [1] [s⁻¹]	kon [1] [M⁻¹ s⁻¹]	koff [2] [s⁻¹]	kon [2] [M⁻¹ s⁻¹]	Rel. activity hVEGR1 comp. ELISA (EC50Luc[nM]/EC50test[nM]) [3]	koff [5] [s⁻¹]	kon [5] [M⁻¹ s⁻¹]	koff [6] [s⁻¹]	kon [6] [M⁻¹ s⁻¹]	binding result (recombinant human PLGF)	koff [7] [s⁻¹]	kon [7] [M⁻¹ s⁻¹]	koff [8] [s⁻¹]	kon [8] [M⁻¹ s⁻¹]	koff [9] [s⁻¹]	kon [9] [M⁻¹ s⁻¹]	relative value KdhVEGF165/KdmVEGF164 [10]	relative value kdhVEGF165/kdmVEGF164 [10]	relative value KdhVEGF165/KdmVEGF164 (rat block) [11]	relative value kdhVEGF165/kdmVEGF164 (rat block) [11]	further results
435-max (scFv, the scFv entry is used; also called Protein Nr; 945) scFv: EIVMTQSPSTLSASVGDRVIITCQASQSIGSSLAWYQQKPGKAPKLLIYTAANLASGVPSRFSGSRSGAEFTLTISSLQPDDFATYYCQNFATSDTVTFGQGTKLTVLGGGGGSGGGGSGGGGSGGGGSEVQLVESGGGLVQPGGSLRLSCKASGFSLNTNYWMCWVRQAPGKGLEWVGCMYTGSYNRAYYASWAKGRFTSSKDTSKNTVYLQMNSLRAEDTAVYYCAKGSNWYSDLWGQGTLVTVSS	0.000755	167000	0.000104	1.13e+06	0.00039																
509-max (scFv, VL and VH tied by name; also called Protein Nr; 855) scFv: EIVMTQSPSTLSASVGDRVIITCQASQNIRIWLSWYQQKPGKAPKLLIYKASTLESGVPSRFSGSGSGTEFTLTISSLQPDDFATYYCQNNAHYSTNGGTFGQGTKLTVLGGGGGSGGGGSGGGGSGGGGSEVQLVESGGGLVQPGGSLRLSCTASGFSLSSYYMCWVRQAPGKGLEWVGCLDYVGDTDYASWAKGRFTISKDASKNTVYLQMNSLRAEDTAVYYCARTDDSRGWGLNIWGQGTLVTVSS	0.00272	2.26e+06	0.000537	1.42e+06	13	0.0059	4.09e+06	0.00645	3.9e+06	no binding	0.00272	2.26e+06	0.000249	742000	0.000235	648000					Rel. activity in HUVEC assay (EC50Luc[nM]/EC50test[nM]) [4]: 0.003
567-max (scFv, VL and VH tied by name; also called Protein Nr; 874) scFv: EIVMTQSPSTLSASVGDRVIITCQADQSIYIWLSWYQQKPGKAPKLLIYKASTLESGVPSRFSGSGSGTQFTLTISSLQPDDFATYYCQNNAHYSTNGGTFGQGTKLTVLGGGGGSGGGGSGGGGSGGGGSEVQLVESGGGLVQPGGSLRLSCSVSGFSLSDYYMCWVRQAPGKGLEWVGCLDYFGSTDDASWAKGRFTISKDTSKNTVYLQMNSLRAEDTAVYYCARTDDSRGWGLNIWGQGTLVTVSS	0.000226	1.2e+06	0.000167	1.17e+06		0.000152	1.64e+06	0.000203	1.36e+06	no binding	0.000226	1.2e+06	5.76e-05	1.13e+06	3.27e-05	1e+06					Rel. activity in HUVEC assay (EC50Luc[nM]/EC50test[nM]) [4]: 0.0086
509-min (scFv, VL and VH tied by name; also called Protein Nr; 854) scFv: EIVMTQSPSTLSASVGDRVIITCQASQNIRIWLSWYQQKPGKAPKLLIYKASTLESGVPSRFSGSGSGAEFTLTISSLQPDDFATYYCQNNAHYSTNGGTFGQGTKLTVLGGGGGSGGGGSGGGGSGGGGSEVQLVESGGGLVQPGGSLRLSCAASGFSLSSYYMCWVRQAPGKGLEWVSCLDYVGDTDYASWAKGRFTISRDNSKNTLYLQMNSLRAEDTAVYYCAKTDDSRGWGLNIWGQGTLVTVSS	0.00114	623000	0.0108	3.52e+06	2.9	0.001	614000	0.000844	351000	no binding	0.00114	623000	0.000453	354000	0.000474	287000					
